According to the RNAGym collection of RNA variant scans (doi:10.7554/elife.80360):

B1: CPEB3 Ribozyme (parent)
chain: GGGGGCCACAGCAGAAGCGUUCACGUCGCGGCCCCUGUCAGAUUCUGGUGAAUCUGCGAAUUCUGCUGU

Variants of: B1
Test: self-cleavage, relative activity (ratio to wild type); higher = more cleavage; co-transcriptional

Row | Variant | self-cleavage
1 | U61G U69G | 0.999
2 | U62A U69A | 0.942
3 | U62A U69G | 1
4 | U61A U64A | 0.54
5 | U62A U64C | 0.61
6 | U62A U64A | 0.452
7 | U62C U64G | 0.489
8 | U62C U64C | 0.46
9 | U62C U64A | 0.507
10 | G65C G68A | 0.678
11 | G68U U69A | 1.01
12 | G68U U69C | 1.1
13 | U67C U69A | 1.07
14 | U67C U69G | 1.11
15 | U61G C63G | 0.396
16 | U61G C63A | 0.673
17 | U61G C63U | 0.57
18 | C63A U69C | 1.07
19 | C63A U69G | 0.991
20 | C63A U69A | 0.949
21 | U61G G68U | 0.826
22 | U61G G68A | 0.988
23 | U61G G68C | 0.867
24 | U64G G65A | 0.578

Row | Variant | self-cleavage
25 | U64G G65C | 0.679
26 | U64C U69C | 1.07
27 | G65A G68U | 0.813
28 | G65A G68C | 0.945
29 | G65A G68A | 0.941
30 | U61A U62C | 0.829
31 | U61A U62G | 0.646
32 | C66A G68C | 0.84
33 | C66A G68U | 0.799
34 | A59U C63U | 0.734
35 | A59U C63G | 0.545
36 | C66A U69A | 0.969
37 | A59G G65U | 0.694
38 | A59G G65C | 0.512
39 | U61A G68U | 0.937
40 | U61A G68C | 0.947
41 | G65C C66U | 0.816
42 | G65C C66G | 0.65
43 | A59C U69A | 0.813
44 | A59C U69C | 0.934
45 | A59C U69G | 0.824
46 | C63U U69A | 1.02
47 | C63U U69G | 1.04
48 | A60G U69G | 1.01

Row | Variant | self-cleavage
49 | A59C U61C | 0.446
50 | C63A G68C | 0.931
51 | C63A G68U | 0.878
52 | C63A G68A | 0.964
53 | U61C G68C | 0.978
54 | U61C G68A | 0.924
55 | G65U | 0.877
56 | G65A | 0.954
57 | G65C | 0.758
58 | C63U C66A | 0.473
59 | C63U C66U | 0.863
60 | U64C G65A | 0.565
61 | U64C G65C | 0.504
62 | A60U C66U | 0.505
63 | U64C G68C | 0.911
64 | U64C G68A | 0.931
65 | G58U U67G | 1.02
66 | G58U U67C | 1.01
67 | A59C G68U | 0.939
68 | A59C G68A | 0.908
69 | G65A C66G | 0.797
70 | G65A C66U | 0.77
71 | A59G U62C | 0.717
72 | A59G U62G | 0.944

Row | Variant | self-cleavage
73 | G65A U67A | 0.793
74 | G65A U67G | 0.887
75 | G65A U67C | 0.844
76 | U62A U67A | 0.924
77 | U62A U67C | 0.908
78 | A59G A60G | 0.533
79 | A59G A60U | 0.352
80 | A59C U62C | 0.407
81 | A59C U62G | 0.423
82 | U62G U69C | 1.03
83 | U62G U69A | 0.937
84 | U62G U69G | 1.01
85 | C63U U67G | 0.985
86 | C63U U67C | 0.968
87 | U62G G68A | 0.894
88 | U62G G68U | 0.683
89 | U62A G68C | 0.949
90 | U62A G68A | 0.924
91 | A59U U64G | 0.729
92 | A59U U64A | 0.459
93 | A59U U64C | 0.558
94 | U67G G68C | 1.07
95 | U67G G68U | 1.1
96 | A60U U61C | 0.629

Row | Variant | self-cleavage
97 | A60U U61G | 0.556
98 | U62C | 0.927
99 | U62G | 0.925
100 | U62A | 0.957
101 | G65C U69A | 0.828
102 | A60C G68C | 0.392
103 | A60C G68U | 0.395
104 | U62C G68C | 0.806
105 | U62C G68U | 0.934
106 | U62C G68A | 1
107 | C63G G68U | 0.584
108 | C63G G68A | 0.849
109 | U64A U67A | 0.895
110 | U64A U67G | 0.922
111 | C66G G68A | 0.96
112 | U61C U62C | 0.479
113 | A59U U67A | 0.805
114 | A59U U67C | 0.867
115 | A60U C63A | 0.391
116 | A60U C63G | 0.38
117 | A60U C63U | 0.479
118 | A59U G65C | 0.497
119 | A59U G65A | 0.531
120 | A59U G65U | 0.329

Row | Variant | self-cleavage
121 | U64C C66G | 0.555
122 | U64C C66U | 0.624
123 | A60U U64C | 0.445
124 | C66U G68C | 0.991
125 | A59G C63A | 0.857
126 | A59G C63G | 0.691
127 | U67A U69G | 1.04
128 | U67A U69C | 1.07
129 | U67A U69A | 0.996
130 | U62G C66A | 0.376
131 | U62G C66U | 0.579
132 | G68A U69G | 1.06
133 | U64G G68U | 0.923
134 | U64G G68A | 1
135 | U64G G68C | 0.799
136 | U61G C66A | 0.495
137 | U61G C66G | 0.538
138 | A59U C66U | 0.775
139 | G68C U69A | 1.06
140 | G68C U69G | 1.11
141 | U61A U67C | 0.896
142 | U61A U67G | 0.958
143 | U61A U67A | 0.903
144 | C63A U67A | 0.757

Row | Variant | self-cleavage
145 | C63A U67C | 0.651
146 | C63A U67G | 0.758
147 | U64A C66U | 0.668
148 | U64A C66A | 0.502
149 | U64A C66G | 0.417
150 | A59C C66G | 0.441
151 | A59C C66A | 0.365
152 | C66A U67A | 0.977
153 | C66A U67G | 0.891
154 | U62G U64G | 0.533
155 | U62C C63G | 0.545
156 | U62C C63U | 0.795
157 | C66U U67G | 1
158 | C66U U67C | 0.956
159 | G65U C66G | 0.814
160 | G65U C66A | 0.669
161 | G65U C66U | 0.55
162 | A60C U64G | 0.333
163 | A60C U64A | 0.267
164 | A60G C63G | 0.545
165 | A60G C63A | 0.429
166 | A60G C63U | 0.867
167 | U62G G65C | 0.475
